Measured values taken from publication PMC8956599.

Biological target: T1, translation initiation factor IF3 (Escherichia coli) (UniProt P0A707)
T1 sequence: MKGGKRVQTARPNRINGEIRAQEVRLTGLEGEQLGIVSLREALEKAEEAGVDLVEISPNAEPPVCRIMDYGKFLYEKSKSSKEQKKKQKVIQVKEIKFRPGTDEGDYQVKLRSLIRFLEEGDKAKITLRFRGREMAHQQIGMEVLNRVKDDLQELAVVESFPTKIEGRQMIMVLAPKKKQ
Experiment: fluorescence anisotropy
Conditions: Binding buffer and temperature not given in material; EMSA gels in Tris/acetate or Tris/borate; anisotropy with 200 nM RNA and DFHBI-1T; protein storage buffer …

“GGGUGGUAACUAGCCAAGCAGCUAGUUACCAAAUCGGGAGAAUCCCGGGUCCUCUCUUUAGGGGGAGGUCCCUGGGCCGAAGCCCGCCCACCUUUCGGUGGAGCCGGACCGCUUUCGCACCCGUGCUCUUUCGAGCACACCCACCCCGUUUACGGGGGUCCCUCGGUCAGCUACCGAGGAGUUGCCAUGUGUAUGUGGGAGACGGUCGGGUCCAGAUAUUCGUAUCUGUCGAGUAGAGUGUGGGCUCCCACAUACUCUGAUGAUCCUUCGGGAUCAUUCAUGGCAAAAACCUCCUAGGAAUGGAAUUCCGGCUACCUACAGCGAUAGCCAUGGUAGCGUCUCGCUAAAGACAUUAAAAAUGGCAUUAGCUCGACAGGAAGUUGAGCAGGACCCCGAAAGGGGUCCCACCC [[F30-Bro(+)]UTR(-)]” showed a Kd of 3.5 µM.
